We go through 5 molecules from US20200247903A1.

In assay [1] the target is Mouse CD24 (Heat Stable Antigen, Ly-52, Nectadrin) on mouse erythrocytes (mouse) (UniProt P24807). Kind of assay: flow cytometry histogram on C57BL/6 mouse erythrocytes, PE-anti rat Ig; antibody quantity of this sample not given; RBC alone 2.80 [continued) I].
In assay [2] the target is TER-119 antigen (Ly76, 52 kD glycophorin A-associated protein) on mouse erythrocytes (mouse). The description is as above.
In assay [3] the target is Band 3 antigen on mouse erythrocytes (mouse) (UniProt P04919). Kind of assay: flow cytometry on mouse RBCs (++++ = MFI > 500).
UniProt P04919, sequence (P04919 whole entry): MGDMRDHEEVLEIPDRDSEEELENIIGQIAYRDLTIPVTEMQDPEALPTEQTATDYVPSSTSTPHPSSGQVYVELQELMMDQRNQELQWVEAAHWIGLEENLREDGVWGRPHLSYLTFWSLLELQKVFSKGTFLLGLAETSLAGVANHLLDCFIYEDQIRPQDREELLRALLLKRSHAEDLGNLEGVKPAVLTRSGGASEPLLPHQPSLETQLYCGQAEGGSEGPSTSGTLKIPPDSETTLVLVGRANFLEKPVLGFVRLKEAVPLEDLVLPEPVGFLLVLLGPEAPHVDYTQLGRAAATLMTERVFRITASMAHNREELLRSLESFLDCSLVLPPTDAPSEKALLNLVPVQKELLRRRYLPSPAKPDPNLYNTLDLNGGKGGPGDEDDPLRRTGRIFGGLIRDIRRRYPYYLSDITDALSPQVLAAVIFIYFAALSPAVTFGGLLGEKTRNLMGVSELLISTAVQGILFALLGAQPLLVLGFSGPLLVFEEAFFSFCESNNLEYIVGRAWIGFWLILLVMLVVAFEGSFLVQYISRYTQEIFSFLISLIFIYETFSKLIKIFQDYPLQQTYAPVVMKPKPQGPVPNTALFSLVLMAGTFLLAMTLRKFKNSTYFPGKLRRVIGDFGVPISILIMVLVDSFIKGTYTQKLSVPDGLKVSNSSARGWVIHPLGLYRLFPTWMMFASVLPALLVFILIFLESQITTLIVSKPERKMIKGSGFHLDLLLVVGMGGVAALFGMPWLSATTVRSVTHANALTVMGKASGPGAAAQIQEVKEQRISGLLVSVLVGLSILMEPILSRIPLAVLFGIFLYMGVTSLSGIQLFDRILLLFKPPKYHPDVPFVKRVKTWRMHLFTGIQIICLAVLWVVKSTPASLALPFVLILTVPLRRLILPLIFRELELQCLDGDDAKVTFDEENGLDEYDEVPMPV
In assay [4] the target is Mouse CD24 (Heat Stable Antigen, Ly-52, Nectadrin) on mouse erythrocytes (mouse) (UniProt P24807). Kind of assay: flow cytometry on mouse RBCs (++++ = MFI > 500).
In assay [5] the target is TER-119 antigen (Ly76, 52 kD glycophorin A-associated protein) on mouse erythrocytes (mouse). Nature of the assay: flow cytometry on mouse RBCs (++++ = MFI > 500).
The target is the same in assay [6]. Kind of assay: cell-based or functional assay.
Assay [7] has the same target. Nature of the assay: flow cytometry saturation binding on RBCs.
The target is the same in assay [8]. Kind of assay: flow cytometry on mouse RBCs (+++ = MFI > 250).

UniProt P24807, sequence (P24807 27-53): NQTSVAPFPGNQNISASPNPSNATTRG

With Isotype control (antibody), the Median : YLW-HLog in assay [1] and in assay [2] was 2.76 each time.

As to “34-3C (anti-Band 3 mAb, mouse IgG2a) (antibody)”, the MFI in assay [3] is greater than 500 mfi.

Consider “M1/69 (rat IgG2b antibody to mouse CD24)”, for which the MFI in assay [4] is greater than 500 mfi. Also, the Median : YLW-HLog in assay [1] amounted to 113.

B1: TER-119 antibody (rat IgG2b monoclonal antibody to the mouse TER-119 antigen) (antibody, V domains shown)
VH: EVKLQESGGGLVQPGGSLKLSCVASGFTFRDHWMNWVRQAPGKTMEWIGDIRPDGSDTNYAPSVRNRFTISRDNARSILYLQMSNMRSDYTATYYCVRDSPTRAGLMDAWGQGTSVTVSS
VL: DIQMTQSPSVLSASVGDRVTLNCKASQNINKYLNWYQQKLGEAPKVLIYNTNNLQTGIPSRFSGSGSGTDFTLTISSLQPEDFATYFCFQHYTWPTFGGGTKLEIKR
With B1, the MFI in assay [5] was greater than 500 mfi. In assay [6], the phagocytic index of TER-119 opsonized RBCs by RAW264.7 macrophages (lowest effective concentration) amounted to 1.25 µg/mL and the phagocytic index of TER-119 opsonized RBCs by RAW264.7 macrophages (plateau) came to 5 µg/mL. In assay [2], this molecule registered a Median : YLW-HLog of 112. Besides, the Kd in assay [7] is 30 nM.

B2: Deglycosylated TER-119 (antibody, V domains shown)
VH: EVKLQESGGGLVQPGGSLKLSCVASGFTFRDHWMNWVRQAPGKTMEWIGDIRPDGSDTNYAPSVRNRFTISRDNARSILYLQMSNMRSDYTATYYCVRDSPTRAGLMDAWGQGTSVTVSS
VL: DIQMTQSPSVLSASVGDRVTLNCKASQNINKYLNWYQQKLGEAPKVLIYNTNNLQTGIPSRFSGSGSGTDFTLTISSLQPEDFATYFCFQHYTWPTFGGGTKLEIKR
modifications: Fc glycan removed (a variant without the Fc glycan)
Turning to B2, in assay [2], the Median : YLW-HLog was determined as 126. Besides, the MFI in assay [8] lay within 250 to 500 mfi.
